T1: human CDCP1 on tumor cells (human, UniProt Q9H5V8 30-836)
T1 sequence (looked up): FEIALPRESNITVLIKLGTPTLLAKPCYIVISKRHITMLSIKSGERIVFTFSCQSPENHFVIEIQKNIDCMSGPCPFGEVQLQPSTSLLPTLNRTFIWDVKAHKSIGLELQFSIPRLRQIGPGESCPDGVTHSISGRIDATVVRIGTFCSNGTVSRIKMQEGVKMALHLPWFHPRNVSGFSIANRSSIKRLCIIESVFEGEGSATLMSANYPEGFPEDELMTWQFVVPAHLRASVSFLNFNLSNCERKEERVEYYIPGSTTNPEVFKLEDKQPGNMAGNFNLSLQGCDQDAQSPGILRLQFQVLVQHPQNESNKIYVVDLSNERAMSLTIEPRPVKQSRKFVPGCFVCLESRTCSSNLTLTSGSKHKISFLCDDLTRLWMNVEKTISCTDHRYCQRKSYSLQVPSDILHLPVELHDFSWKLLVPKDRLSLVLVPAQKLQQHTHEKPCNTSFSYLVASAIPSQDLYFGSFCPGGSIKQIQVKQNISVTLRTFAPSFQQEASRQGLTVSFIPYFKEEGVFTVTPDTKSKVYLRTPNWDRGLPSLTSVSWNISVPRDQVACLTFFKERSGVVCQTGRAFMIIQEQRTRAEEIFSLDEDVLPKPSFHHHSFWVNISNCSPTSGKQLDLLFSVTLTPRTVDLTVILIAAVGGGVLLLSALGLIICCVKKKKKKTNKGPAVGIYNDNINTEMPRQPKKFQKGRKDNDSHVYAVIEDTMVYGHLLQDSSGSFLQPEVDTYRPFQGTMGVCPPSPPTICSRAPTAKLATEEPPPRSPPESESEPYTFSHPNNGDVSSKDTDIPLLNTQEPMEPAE

T2: HuCDCP1-C (human, UniProt Q9H5V8 30-667)
T2 construct: range 30-667; expressed in HEK-293T, purified by Fc/his tag; also called human CDCP1-C; full-length extracellular domain of human CDCP1; not shown: Fc or his tag
T2 sequence (looked up): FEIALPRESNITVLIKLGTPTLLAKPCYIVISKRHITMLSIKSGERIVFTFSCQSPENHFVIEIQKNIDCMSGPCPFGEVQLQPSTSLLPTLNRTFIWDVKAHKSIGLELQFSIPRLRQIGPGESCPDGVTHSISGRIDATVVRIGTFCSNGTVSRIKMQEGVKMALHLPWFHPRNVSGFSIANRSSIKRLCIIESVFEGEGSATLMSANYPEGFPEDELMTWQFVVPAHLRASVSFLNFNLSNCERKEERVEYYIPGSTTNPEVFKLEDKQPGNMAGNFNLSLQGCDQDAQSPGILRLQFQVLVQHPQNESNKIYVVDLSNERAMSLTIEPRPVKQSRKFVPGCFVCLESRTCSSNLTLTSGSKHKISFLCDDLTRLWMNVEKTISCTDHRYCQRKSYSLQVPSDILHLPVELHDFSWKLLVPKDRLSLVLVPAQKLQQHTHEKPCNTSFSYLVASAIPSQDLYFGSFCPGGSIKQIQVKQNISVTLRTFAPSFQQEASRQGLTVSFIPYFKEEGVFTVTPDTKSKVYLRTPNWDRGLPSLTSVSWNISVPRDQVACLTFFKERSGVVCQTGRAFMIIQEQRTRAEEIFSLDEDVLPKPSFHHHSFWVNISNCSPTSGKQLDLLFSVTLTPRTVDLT

B1: 10D2-MMAE (antibody, V domains shown)
VH: EVQLQQSGPELKKPGETVKISCKASGYTFTDYSMHWVKQAPGKGLKWMGWINTETGQPTYADDFKGRFAFSLETSASSAYLQINNLKNEDTATYFCTRTFYYDYVGDYWGQGTTVTVSS
VL: DIVMTQSHKFMSTSVGDRVSITCKASQDVSTAVAWYRQKPGQSPKLLIYWASTRHTGVPDRLTGSGSGTDFALTINSVQAEDLALYYCQQHSSTPYTFGGGTKLEIK
modifications: vc-MMAE coupled after reduction, sites not stated; DAR 3.5
B2: 1CP-151 (antibody, human IgG1, kappa, V domains shown)
VH: EVQLVESGGGLVQPGRSLRLSCTASGLTFTHYHMSWFRQAPGKGLEWVAIIRNKAYGYTTDYSASVRGRFTISRDDSKSILYLQMNSLKTEDTAVYYCVREGGYGYDGTFAYWGQGTLVTVSS
VL: DIQMTQSPSSLSASVGDRVTITCRASESVDNYGISFMNWFQQKPGQAPKLLIYAASNQGSGVPSRFSGSGSGTDFTLTISSMQPEDFATYYCQQSKEVPRTFGGGTKVEIKR
notes: humanized 8C9, human IgG1 kappa
B3: 1CP-160 (antibody, human IgG1, kappa, V domains shown)
VH: EVQLVESGGGLVQPGRSLRLSCTTSGLTFTHYHMSWVRQAPGKGLEWVAIIRNKAYGYTTDYSASVRGRFTISRDDSKSILYLQMNSLKTEDTAVYYCVREGGYGYDGTFAYWGQGTLVTVSS
VL: DIQMTQSPSSLSASVGDRVTITCRASESVDNYGISFMNWFQQKPGQPPKLLIYAASNQGSGVPSRFSGSGSGTDFTLTISSMQPEDFATYFCQQSKEVPRTFGGGTKVEIKR
notes: as for B2
B4: 1CP-161 (antibody, human IgG1, kappa, V domains shown)
VH: EVQLVESGGGLVQPGRSLRLSCTTSGLTFTHYHMSWVRQAPGKGPEWVAIIRNKAYGYTTDYSASVRGRFTISRDDSKSILYLQMNSLKTEDTAVYYCVREGGYGYDGTFAYWGQGTLVTVSS
VL: DIQMTQSPSSLSASVGDRVTITCRASESVDNYGISFMNWFQQKPGQPPKLLIYAASNQGSGVPSRFSGSGSGTDFTLTISSMQPEDFATYFCQQSKEVPRTFGGGTKVEIKR
notes: as for B2
B5: 1CP-162 (antibody, human IgG1, kappa, V domains shown)
VH: EVQLVESGGGLVQPGRSLRLSCTTSGLTFTHYHMSWVRQPPGKAPEWVAIIRNKAYGYTTDYSASVRGRFTISRDDSKSILYLQMNSLKTEDTAVYYCVREGGYGYDGTFAYWGQGTLVTVSS
VL: DIQMTQSPSSLSASVGDRVTITCRASESVDNYGISFMNWFQQKPGQPPKLLIYAASNQGSGVPSRFSGSGSGTDFTLTISSMQPEDFATYFCQQSKEVPRTFGGGTKVEIKR
notes: as for B2
B6: 1CP-153 (antibody, human IgG1, kappa, V domains shown)
VH: EVQLVESGGGLVQPGRSLRLSCTTSGLTFTHYHMSWVRQAPGKGPEWVAIIRNKAYGYTTDYSASVRGRFTISRDDSKSILYLQMNSLKTEDTAVYYCVREGGYGYDGTFAYWGQGTLVTVSS
VL: DIQMTQSPSSLSASVGDRVTITCRASESVDNYGISFMNWFQQKPGQAPKLLIYAASNQGSGVPSRFSGSGSGTDFTLTISSMQPEDFATYYCQQSKEVPRTFGGGTKVEIKR
notes: as for B2
B7: 1CP-158 (antibody, human IgG1, kappa, V domains shown)
VH: EVQLVESGGGLVQPGRSLRLSCTTSGLTFTHYHMSWVRQPPGKAPEWVAIIRNKAYGYTTDYSASVRGRFTISRDDSKSILYLQMNSLKTEDTAVYYCVREGGYGYDGTFAYWGQGTLVTVSS
VL: DIQMTQSPSSLSASVGDRVTITCRASESVDNYGISFMNWFQQKPGQPPKLLIYAASNQGSGVPSRFSGSGSGTDFTLTISSMQPEDFATYYCQQSKEVPRTFGGGTKVEIKR
notes: as for B2
B8: 1CP-155 (antibody, human IgG1, kappa, V domains shown)
VH: EVQLVESGGGLVQPGRSLRLSCTASGLTFTHYHMSWFRQAPGKGLEWVAIIRNKAYGYTTDYSASVRGRFTISRDDSKSILYLQMNSLKTEDTAVYYCVREGGYGYDGTFAYWGQGTLVTVSS
VL: DIQMTQSPSSLSASVGDRVTITCRASESVDNYGISFMNWFQQKPGQPPKLLIYAASNQGSGVPSRFSGSGSGTDFTLTISSMQPEDFATYYCQQSKEVPRTFGGGTKVEIKR
notes: as for B2
B9: 1CP-159 (antibody, human IgG1, kappa, V domains shown)
VH: EVQLVESGGGLVQPGRSLRLSCTASGLTFTHYHMSWFRQAPGKGLEWVAIIRNKAYGYTTDYSASVRGRFTISRDDSKSILYLQMNSLKTEDTAVYYCVREGGYGYDGTFAYWGQGTLVTVSS
VL: DIQMTQSPSSLSASVGDRVTITCRASESVDNYGISFMNWFQQKPGQPPKLLIYAASNQGSGVPSRFSGSGSGTDFTLTISSMQPEDFATYFCQQSKEVPRTFGGGTKVEIKR
notes: as for B2
B10: 1CP-154 (antibody, human IgG1, kappa, V domains shown)
VH: EVQLVESGGGLVQPGRSLRLSCTTSGLTFTHYHMSWVRQPPGKAPEWVAIIRNKAYGYTTDYSASVRGRFTISRDDSKSILYLQMNSLKTEDTAVYYCVREGGYGYDGTFAYWGQGTLVTVSS
VL: DIQMTQSPSSLSASVGDRVTITCRASESVDNYGISFMNWFQQKPGQAPKLLIYAASNQGSGVPSRFSGSGSGTDFTLTISSMQPEDFATYYCQQSKEVPRTFGGGTKVEIKR
notes: as for B2
B11: 3C11-MMAE (antibody, V domains shown)
VH: EVQLQQSGTVLARPGASVKMSCKASGYNFISYWLHWIKQRPGQGLEWIGGIYPGNTDTTYNQKFKGKAKVTAVTSATTAYMELSSLTNEDSAVYYCIRYDYDRGMDYWGQGTTVTVSS
VL: DIQMTQSPSSFSVSLGDRVTITCRASEDIYYRLAWYQQKPGNAPRLLISGATALETGVPSRFSGSGSGKDYTLSITSLQTEDVATYYCQHYWNIPWTFGGGTKLEIK
modifications: vc-MMAE coupled after reduction, sites not stated; DAR 3.48
B12: 8E5-MMAE (antibody, V domains shown)
VH: EVQLKESGPELKKPGETVKISCKASGYTLTDFSMHWLKQAPGKGLKWMGWINTETGAPTYADDFKGRFALSLDTSANTAYLQINNLKNEDTATYFCSRGRDYDPHFDYWGQGTTVTVSS
VL: EIVLTQSPATLSVTPGDRVSLSCRASQSISDFLHWYQQRSHESPRLLIKYASQSISGIPSRFGGSGSGSDFTLNINTVEPEDVGMYYCQSAHSFPYTFGGGTKLEIK
modifications: vc-MMAE coupled after reduction, sites not stated; DAR 3.65
B13: 5B8-MMAE (antibody, V domains shown)
VH: EVQLKESGGGLVQPGGSLRISCATSGLTFTHYHMSWVRQPPGKAPEWLAIIRNKAYGYTTDYSASVRGRFTISRDDSQSILYLQMNTLRAEDSATYYCVREGGYGYDGTFAYWGQGTTVTVSS
VL: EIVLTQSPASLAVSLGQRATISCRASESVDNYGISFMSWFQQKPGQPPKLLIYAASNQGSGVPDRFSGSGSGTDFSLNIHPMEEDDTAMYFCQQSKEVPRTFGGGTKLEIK
modifications: vc-MMAE coupled after reduction, sites not stated; DAR 3.85
B14: 8C9-MMAE (antibody, V domains shown)
VH: EVQLKESGGGLVQPGGSLRISCATSGLTFTHYHMSWVRQPPGKAPEWLAIIRNKAYGYTTDYSASVRGRFTISRDDSQSILYLQMNTLRPEDSATYYCVREGGYGYDGTFAYWGQGTTVTVSS
VL: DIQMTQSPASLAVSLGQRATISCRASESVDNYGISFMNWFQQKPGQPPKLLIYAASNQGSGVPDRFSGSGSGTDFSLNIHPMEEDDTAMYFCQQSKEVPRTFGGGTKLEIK
modifications: vc-MMAE coupled after reduction, sites not stated; DAR 3.44

How the values were obtained:
[1] = target: T1, human CDCP1 on tumor cells; assay: cell-based or functional assay
HuCDCP1-C = target: T2, HuCDCP1-C; assay: SPR (Caterra), antigen immobilized
Method: The humanized anti-CDCP1 antibodies obtained from Example 11 were subjected to gene cloning, constructed into pTT5 expression vector for a small amount of expression in CHO cells (Expi-CHOS: Gibco A29127), and purified with an Fc affinity column (AT Protein A Diamond Plus. No. AA402312). Antibody purity was analyzed by HPLC and determined by Nanodrop. High-throughput affinity assay was carried out for a small amount of antibodies by Caterra.

Binder	IC50 (nM), killing of HCT116 cells (120 h), CellTiter-Glo [1] [nM]	IC50 (nM), killing of MDA-MB-231 cells (120 h), CellTiter-Glo [1] [nM]	IC50 (nM), killing of PC3 cells (96 h), CellTiter-Glo [1] [nM]	Kd (HuCDCP1-C) [nM]	koff (HuCDCP1-C) [s⁻¹]	kon (HuCDCP1-C) [M⁻¹ s⁻¹]
B1	11.4	> 200	0.0164			
B2				19.1	0.00302	158000
B3				3.8	0.00042	110000
B4				3.21	0.000365	114000
B5				2.7	0.000305	113000
B6				3.58	0.000388	108000
B7				2.96	0.000321	109000
B8				36.6	0.000579	15800
B9				42.5	0.000767	18000
B10				2.92	0.000346	118000
B11	2.33	> 40	0.0119			
B12	10.6	> 40	0.0205			
B13	11.7	> 200	0.014			
B14	13	> 40	0.0184			

From US20260250410A1 (SICHUAN HUIYU PHARMACEUTICAL, published 2026)
